Results from US20220162304A1 (TUOJIE BIOTECH SHANGHAI, published 2022).

T1: human CD79B protein on the surface of DoHH2 cells (human, UniProt P40259 29-229)
T1 construct: whole, on cells; endogenous CD79B on a B-cell lymphoma line
T1 sequence (looked up): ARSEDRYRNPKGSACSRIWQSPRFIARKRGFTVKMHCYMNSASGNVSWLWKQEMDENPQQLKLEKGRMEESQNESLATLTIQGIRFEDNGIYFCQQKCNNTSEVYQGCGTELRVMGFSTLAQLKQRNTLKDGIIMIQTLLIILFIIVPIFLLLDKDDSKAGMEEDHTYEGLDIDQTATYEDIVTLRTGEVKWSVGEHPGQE

T2: fusion protein of human CD79B extracellular domain (ECD) and His tag (human CD79B ECD-His) (human, UniProt P40259 29-159)
T2 construct: also called human CD79B-His; Human CD79B-His protein
T2 sequence: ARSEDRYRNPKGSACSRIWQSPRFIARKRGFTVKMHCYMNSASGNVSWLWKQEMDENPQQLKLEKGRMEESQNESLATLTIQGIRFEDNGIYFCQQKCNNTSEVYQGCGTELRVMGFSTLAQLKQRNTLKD

T3: human CD79B antigen (coating antigen of the ELISA, construct not stated) (human, UniProt P40259 29-159)
T3 sequence (looked up): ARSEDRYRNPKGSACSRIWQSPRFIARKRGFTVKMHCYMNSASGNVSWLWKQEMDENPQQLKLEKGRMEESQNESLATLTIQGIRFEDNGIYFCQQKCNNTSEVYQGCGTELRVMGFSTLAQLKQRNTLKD

B1: SN8 (antibody, V domains shown)
VH: EVQLVESGGGLVQPGGSLRLSCAASGYTFSSYWIEWVRQAPGKGLEWIGEILPGGGDTNYNEIFKGRATFSADTSKNTAYLQMNSLRAEDTAVYYCTRRVPIRLDYWGQGTLVTVSS
VL: DIQLTQSPSSLSASVGDRVTITCKASQSVDYEGDSFLNWYQQKPGKAPKLLIYAASNLESGVPSRFSGSGSGTDFTLTISSLQPEDFATYYCQQSNEDPLTFGQGTKVEIKR
B2: humanized antibody hAb015 (antibody, human IgG1, kappa, V domains shown)
VH: EVQLVQSGAEVKKPGSSVKVSCKASGSSFSSYGINWVKQAPGQGLEWIGEIFPRSGNTYYNEKFEGRATLTADKSTSTAYMELRSLRSEDTAVYYCAKGDLGDFDYWGQGTTVTVSS
VL: DFVMTQTPLSLPVTPGEPASISCRSSQSIVHSDGNTYFEWYLQKPGQSPKLLIYKVSNRFSGVPDRFSGSGSGTDFTLKISRVEAEDVGVYYCFQGSHVPWTFGGGTKVEIKR
B3: humanized antibody hAb017 (antibody, human IgG1, kappa, V domains shown)
VH: EVQLVQSGAEVKKPGASVKVSCKASGYTFTTYGINWVKQAPGQGLEWIGEIYPRSGNIYYNEKFKGKATLTADKSTSTAYMELRSLRSDDTAVYYCARGSDYDGDFAYWGQGTLVTVSS
VL: DVVMTQTPLSLPVTPGEPASISCRSSQSIVHHDGNTYLEWYLQKPGQSPQLLIYKVSNRFSGVPDRFSGSGSGTDFTLKISRVEAEDVGVYYCFQGSHVPWTFGGGTKVEIKR
B4: murine hybridoma monoclonal antibody mAb015 (antibody, V domains shown)
VH: QVQLQQSGAELARPGASVKLSCKASGSSFTSYGINWVKQRTGQGLEWIGEIFPRSGNTYYNEKFEGKATLTADKSSSTAYMELRSLTSEDSAVYFCAKGDLGDFDYWGQGTTLTVSS
VL: DFLMTQTPLSLPVRLGDQASISCRSSQSIVHSDGNTYFEWYLQKPGQSPKLLIYKVSNRFSGVPDRFSGSGSGTDFTLKISRVEAEDLGVYYCFQGSHVPWTFGGGTKLEIK
notes: murine monoclonal antibody from hybridoma; also called 83B2G2
B5: murine hybridoma monoclonal antibody mAb016 (antibody, V domains shown)
VH: QVQLQQSGAELARPGASVKLSCKASGYIFTNYGIIWVKQRTGQGLEWIGDIFPGSGNTYYNENFKGKATLTADKSSSTAYMELRSLTSEDSAVYFCSRGELGDFDYWGQGTTLTVSS
VL: VVLMTQTPLSLPVSLGDQASISCRSSQNIVHSDGTTYLEWYLQKPGQSPKLLIYKVSNRFSGVPDRFSGSGSGTDFTLKISRVEAEDLGIYYCFQGSHVPWTFGGGTKLEIK
notes: murine monoclonal antibody from hybridoma; also called 83C2D4
B6: murine hybridoma monoclonal antibody mAb017 (antibody, V domains shown)
VH: QVQLQQSGAELARPGASVKLSCKASGYTFTTYGINWVKQRTGQGLEWIGEIYPRSGNIYYNEKFKGKATLTADKSSSTAYMELRSLTSEDSAVYFCARGSDYDGDFAYWGQGTLVTVSA
VL: DVLMTQTPLSLPVSLGDQASISCRSSQSIVHHDGNTYLEWYLQKPGQSPKLLIYKVSNRFSGVPDRFSGSGSGTDFTLKISRVEAEDLGVYYCFQGSHVPWTFGGGTQLEIK
notes: murine monoclonal antibody from hybridoma; also called 86F11F6

Legend:
[1] = molecular target: T1, human CD79B protein on the surface of …; experiment: FACS on DOHH2 cells, serial antibody dilutions, FITC secondary antibody, MFI
[2] = molecular target: T2, fusion protein of human CD79B …; experiment: SPR (Biacore 8K; by Example 2 human CD79B-His immobilised on CM5 chip, antibody flowed over)
[3] = molecular target: T3, human CD79B antigen (coating antigen of …); experiment: ELISA, hybridoma culture supernatant on plate coated with antigen 1 µg/mL
Method: 3) ELISA screening. Before the start of the experiment, a 96-well plate was labeled accordingly and coated with an antigen at a concentration of 1 μg/mL, 50 μl per well overnight in a refrigerator at 4° C. The next day, the antigen plate coated the day before was taken out and washed with a plate washer (washing solution: 1×PBST). After washing, the plate was blocked with 1% BSA blocking solution prepared in 1×PBST at 37° C. for 1 h. After washing the plate with 1×PBST washing solution for 3 times, 50 μl of cell supernatant to be tested were added and incubated in a 37° C. incubator for 1 h. After washing the plate with 1×PBST washing solution for 3 times, 100 μl 1:5000 diluted goat-anti-mouse secondary antibody was added and incubated in a 37° C. incubator for 0.5 h. After washing the plate, TMB chromogenic solution A and B were mixed at a 1:1 ratio and then color development was carried out. The development reaction was terminated with 1 N hydrochloric acid after 15 min. The […] at 450 nm were detected on a Spectra Max M5 multi-function plate reader.
(§1) 5) Identification of positive hybridoma clones. After fusion and subclone screening of mouse spleen cells, we obtained a number of specific antibodies against human CD79B antigen. Among them, 17 hybridomas with the best ELISA and FACS binding ability were used for antibody production and purification. The FACS detection results of the culture supernatant of anti-human CD79B hybridoma positive clone cells are shown in Table 2. mIgG was used as a negative control in both ELISA and FACS tests.

[4] = molecular target: T1, human CD79B protein on the surface of …; experiment: FACS, hybridoma culture supernatant on DoHH2 cells
Method: 4) FACS screening. DoHH2 cell suspensions were centrifuged and the cells were resuspended in PBS containing 0.1% BSA and counted. The cell supernatant to be tested was added. After 60 min of incubation at room temperature, the cells were washed for three times and then anti-mouse IgG Fc-FITC secondary antibody was added. After 30 min of incubation at room temperature in the dark, the cells were washed for three times and gently resuspended in PBS containing 0.1% BSA for detection on the instrument.
as §1

[5] = molecular target: T3, human CD79B antigen (coating antigen of …); experiment: ELISA, plate coated with antigen at 1 ug/mL, serial antibody dilutions, OD450
Method: 2) ELISA detection of anti-human CD79B murine monoclonal antibodies. Before the start of the experiment, a 96-well plate was labeled accordingly and coated with an antigen at a concentration of 1 μg/mL, 50 μl per well overnight in a refrigerator at 4° C. The next day, the antigen plate coated the day before was taken out and washed with a plate washer (washing solution: 1×PBST) for once. After washing, the plate was blocked with 1% BSA blocking solution prepared in 1×PBST at 37° C. for 1 h. After washing the plate with 1×PBST washing solution for 3 times, 50 μl of antibody, diluted to 100 nM (by 1:10), were added and incubated in a 37° C. incubator for 1 h. After washing the plate with ×PBST washing solution for 3 times, 100 μl 1:5000 diluted goat-anti-mouse secondary antibody was added and incubated in a 37° C. incubator for 0.5 h. After washing the plate, TMB chromogenic solution A and B were mixed at a 1:1 ratio and then color development was carried out. The development reaction was terminated with 1 N hydrochloric acid after 15 min. The […] at 450 nm were detected on a Spectra Max M5 multi-function plate reader. Among them, three anti-human CD79B murine monoclonal antibodies had the strongest ELISA binding ability, including mAb015, mAb016 and mAb017 (see FIG. 7 for specific data). Among them, hIgG1 was the negative control antibody and SN8 was the positive control antibody. SN8 is the antibody used in the antibody-conjugated drug polatuzumab vedotin developed by Roche Pharmaceuticals (for the sequence, refer to the source of the sequence: US20170362318A). At present, polatuzumab vedotin has been approved by the FDA for marketing. It can be seen from the results that in the ELISA experiment, the binding ability of the three anti-human CD79B murine monoclonal antibodies mAb015, mAb016 and mAb017 selected preferably by the present disclosure was similar to that of SN8.

[6] = molecular target: T1, human CD79B protein on the surface of …; experiment: FACS on DOHH2 cells, serial antibody dilutions, anti-mouse IgG Fc-FITC secondary antibody, MFI
Method: 3) FACS detection of anti-human CD79B murine monoclonal antibodies. After centrifugation of the DOHH2 cell suspension, the cells were resuspended in PBS containing 0.1% BSA and counted. 100 μl of antibody diluted to 100 nM (by 1:10) was added and incubated for 1 h at room temperature. After washing the cells for three times, anti-mouse IgG Fc-FITC secondary antibody was added. After 30 min of incubation at room temperature in the dark, the cells were washed for three times and gently resuspended in PBS containing 0.1% BSA for testing on an instrument. Among them, three anti-human CD79B murine monoclonal antibodies had the strongest FACS binding ability, including mAb015, mAb016 and mAb017 (see FIG. 8 for specific data). Among them, hIgG1 was the negative control antibody and SN8 was the positive control antibody. It can be known from the results that in the FACS experiment, the binding ability of the three anti-human CD79B murine monoclonal antibodies mAb015, mAb016 and mAb017 selected preferably by the present disclosure was better than that of SN8.

Binder | EC50 (read off the curve) [1] [µg/mL] | Kd [2] [nM] | OD450 [3] [OD450] | Mean fluorescence values [4] [mean fluorescence] | EC50 (read off the curve) [5] [nM] | EC50 (read off the curve) [6] [µg/mL]
B1 | ~0.09 | – | – | – | – | –
B2 | – | 0.43 | – | – | – | –
B3 | – | 3.77 | – | – | – | –
B4 | – | – | 3.41 | 10000 | ~0.1 | ~0.02
B5 | – | – | 3.46 | 9990 | ~0.1 | ~0.02
B6 | – | – | 3.8 | 8130 | ~0.1 | ~0.02
